Data set [1] deals with the molecule itself. Nature of the data set: negative-stain EM; P pilus rods assembled in vitro from 50 µM PapA-PapDhis complex, 20 mM Tris-HCl pH 8.0, 50 mM NaCl, 37 °C, 7 days.
The target of data set [2] is T1, FimC, periplasmic chaperone of type 1 pili (Escherichia coli, UniProt P31697 37-241).
T1 construct: FimC, periplasmic chaperone of type 1 pili, Escherichia coli; source: E. coli BL21(DE3) with pFimC-cyt, purified (SP-Sepharose, Superdex 75 SEC)
T1 sequence: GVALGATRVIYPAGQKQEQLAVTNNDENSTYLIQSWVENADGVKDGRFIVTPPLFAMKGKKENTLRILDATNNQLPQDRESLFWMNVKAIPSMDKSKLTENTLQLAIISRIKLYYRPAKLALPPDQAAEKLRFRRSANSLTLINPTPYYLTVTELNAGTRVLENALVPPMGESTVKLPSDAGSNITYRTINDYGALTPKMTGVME
Nature of the data set: SEC; complex formed by rapid dilution of unfolded, disulfide-intact FimA into FimC (15 min, 23 °C), then Sephadex G25, Source 30S cation exchange and Superdex 75 in 20 mM Tris-HCl pH 8.0, 50 mM NaCl. As to conditions: both partners purified.

The next data set deals with T2, FimChis (Escherichia coli, UniProt P31697 37-241).
T2 construct: FimC, periplasmic chaperone of type 1 pili, Escherichia coli; source: E. coli BL21(DE3) with pFimChis-cyt, purified (SP-Sepharose, Superdex 75 SEC)
T2 sequence (looked up): T1 sequence
The description is as above. As to conditions: both partners purified.

Data set [3] deals with the molecule itself. Nature of the data set: cryo-EM structure; in vitro-assembled type 1 pilus rods, helical reconstruction, 2.69 Å; sample diluted to 100 µM in ddH2O.

Here are results for two molecules from paper PMC11001860, “The assembly platform FimD is required to obtain the most stable quaternary structure of type 1 pili” (Nature Communications, 2024).

B1: PapA, main structural subunit of the P pilus rod (co-expressed with PapDhis) (natural protein)
chain: APTIPQGQGKVTFNGTVVDAPCSISQKSADQSIDFGQLSKSFLEAGGVSKPMDLDIELVNCDITAFKGGNGAKKGTVKLAFTGPIVNGHSDELDTNGGTGTAIVVQGAGKNVVFDGSEGDANTLKDGENVLHYTAVVKKSSAVGAAVTEGAFSAVANFNLTYQ
notes: PapA, main structural subunit of the P pilus rod, Escherichia coli; also called in vitro-assembled P pili; source: E. coli HM125 with PapDA (pTRC99a), periplasmic extract; purified as a complex with PapDhis (HisTrap, Source 30S, SEC)
B1: the binding result in data set [1] is “binds”.

B2: FimA, main structural subunit of the type 1 pilus rod (recombinant, assembled in vitro) (natural protein)
chain: AATTVNGGTVHFKGEVVNAACAVDAGSVDQTVQLGQVRTASLAQEGATSSAVGFNIQLNDCDTNVASKAAVAFLGTAIDAGHTNVLALQSSAAGSATNVGVQILDRTGAALTLDGATFSSETTLNNGTNTIPFQARYFATGAATPGAANADATFKVQYQ
notes: FimA, main structural subunit of the type 1 pilus rod of Escherichia coli; printed residue numbers run to Q159; The same FimA was used for rods assembled from FimA monomers, from FimA-FimC complexes and with FimD (FimD-cat); also called FimA monomers; self-complemented FimA
For B2, the binding result (in data set [2]; with FimChis; in data set [3]) was “binds” throughout.
